Experiments:
[1] = target: T1, SSB1 (human, UniProt Q9BQ15 1-211); experiment: EMSA; ED Fig. 2a ssDNA taken as (dT)48, the only listed ssDNA oligo; EMSA: 100 nM Cy3 probe, 20 mM Tris-HCl pH 7.5, 50 mM NaCl, 5 mM MgCl2, 0.2 mM EDTA, 1 mM DTT, on ice 30 min; 6% native PAGE, 0.5x TBE, cold room; details: protein: recombinant; label: 3' Cy3
[2] = target: T1, SSB1; experiment: EMSA; EMSA: 100 nM Cy3 probe, 20 mM Tris-HCl pH 7.5, 50 mM NaCl, 5 mM MgCl2, 0.2 mM EDTA, 1 mM DTT, on ice 30 min; 6% native PAGE, 0.5x TBE, cold room; details: protein: recombinant; blunt

T1 sequence (Q9BQ15 whole entry): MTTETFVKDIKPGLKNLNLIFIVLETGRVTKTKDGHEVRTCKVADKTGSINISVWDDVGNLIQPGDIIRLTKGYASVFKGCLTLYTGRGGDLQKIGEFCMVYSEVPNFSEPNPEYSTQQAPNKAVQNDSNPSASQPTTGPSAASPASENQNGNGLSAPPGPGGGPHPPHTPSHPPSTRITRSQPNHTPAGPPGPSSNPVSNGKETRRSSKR

| Binder | binding result [1] | binding result [2] |
| --- | --- | --- |
| TTTTTTTTTTTTTTTTTTTTTTTTTTTTTTTTTTTTTTTTTTTTTTTT (ssDNA) [oligo (dT)48] | binds |  |
| Blunt-end dsDNA (30 bp) random (dsDNA) DNA 1: GAGCTACCAGCTACCCCGTATGTCAGAGAG DNA 2: CTCTCTGACATACGGGGTAGCTGGTAGCTC |  | no binding |

From article PMC10511320, “R-loop-dependent promoter-proximal termination ensures genome stability”
